The results in this text go back to patent publication US20220056119A1 (Regeneron, published 2022).

Test [1] deals with T1, Activin A (human, UniProt P08476 311-426).
T1 sequence: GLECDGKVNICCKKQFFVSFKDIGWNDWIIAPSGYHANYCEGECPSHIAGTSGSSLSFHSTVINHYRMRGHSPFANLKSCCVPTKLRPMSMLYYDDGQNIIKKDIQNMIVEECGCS
Description: cell-based or functional assay.

For another test, the target named is T2, Activin AB (human, UniProt P08476 311-426; P09529 293-407).
T2 chain 1: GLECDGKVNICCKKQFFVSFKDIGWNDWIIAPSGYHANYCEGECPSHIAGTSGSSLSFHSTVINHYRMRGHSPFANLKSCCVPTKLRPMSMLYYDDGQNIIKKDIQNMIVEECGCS
T2 chain 2: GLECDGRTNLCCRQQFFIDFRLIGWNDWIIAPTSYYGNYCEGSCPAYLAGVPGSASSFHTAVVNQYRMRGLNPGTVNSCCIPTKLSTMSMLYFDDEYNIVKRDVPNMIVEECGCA
Description: cell-based or functional assay.

The target in a further test is T3, Activin AC (human, UniProt P55103 237-352).
T3 sequence 1: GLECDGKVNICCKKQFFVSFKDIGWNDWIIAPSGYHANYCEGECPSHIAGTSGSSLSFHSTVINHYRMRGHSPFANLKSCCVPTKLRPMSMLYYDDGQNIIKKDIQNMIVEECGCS
T3 sequence 2: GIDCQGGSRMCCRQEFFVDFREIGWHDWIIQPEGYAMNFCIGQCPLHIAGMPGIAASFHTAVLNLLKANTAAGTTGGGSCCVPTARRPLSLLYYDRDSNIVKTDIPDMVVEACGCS
Description: cell-based or functional assay.

In test [2] the target is T1, Activin A. Description: SPR, 5 nM Activin A + 15 nM binder over hActRIIA-hFc surface. On the procedure: (§1) The binding signal (RU) was measured at 150 seconds after the start of the injection, and this signal was subtracted by the measured RU value for a negative control reference surface to determine the specific binding signal.
(In general: In SPR one partner is held on a chip, and binding of the other changes the refractive index at the surface.)

Test [3] has as its target T1, Activin A. Description: SPR, 5 nM Activin A + 30 nM binder over hActRIIA-hFc surface. On the procedure: as §1
Test [4] deals with T1, Activin A. Description: SPR, 5 nM Activin A + 60 nM binder over hActRIIA-hFc surface. On the procedure:
as §1

The target in test [5] is T1, Activin A. Description: SPR, 5 nM Activin A + 0.94 nM binder over hActRIIA-hFc surface. On the procedure:
as §1

Test [6] concerns the target T1, Activin A. Description: SPR, 5 nM Activin A + 1.88 nM binder over hActRIIA-hFc surface. As for the experimental part: as §1
For test [7], the target named is T1, Activin A. Description: SPR, 5 nM Activin A + 3.75 nM binder over hActRIIA-hFc surface. As for the experimental part:
as §1

For test [8], the target named is T1, Activin A. Description: SPR, 5 nM Activin A + 7.50 nM binder over hActRIIA-hFc surface. As for the experimental part:
as §1

Test [9] addresses T1, Activin A. Description: SPR, 5 nM Activin A + 15 nM binder over Follistatin-288 surface. As for the experimental part: as §1
The target in test [10] is T1, Activin A. Description: SPR, 5 nM Activin A + 30 nM binder over Follistatin-288 surface. On the procedure:
as §1

For test [11], the target named is T1, Activin A. Description: SPR, 5 nM Activin A + 60 nM binder over Follistatin-288 surface. On the procedure:
as §1

The target in test [12] is T1, Activin A. Description: SPR, 5 nM Activin A + 7.5 nM binder over Follistatin-288 surface. As for the experimental part: as §1
Test [13] has as its target T1, Activin A. Description: SPR, 5 nM Activin A + 0.94 nM binder over Follistatin-288 surface. On the procedure: as §1
For test [14], the target named is T1, Activin A. Description: SPR, 5 nM Activin A + 1.88 nM binder over Follistatin-288 surface. On the procedure:
as §1

For test [15], the target named is T1, Activin A. Description: SPR, 5 nM Activin A + 3.75 nM binder over Follistatin-288 surface. As for the experimental part: as §1
In test [16] the target is T1, Activin A. Description: SPR, 5 nM Activin A + 0 nM binder (no inhibitor) over Follistatin-288 surface. As for the experimental part: as §1
Test [17] concerns the target T1, Activin A. Description: SPR, 5 nM Activin A + 0.00 nM binder (no inhibitor) over hActRIIA-hFc surface. As for the experimental part:
as §1

B1: H4H10432P2 (antibody, human IgG4, V domains shown)
VH: EVQLVESGGGLVQPGRSLTLSCAVSGFTFDDHAMHWVRQAPGKGLEWVSGISWNSVSIGYADSVKGRFTISRDNAKTSLYLQMNSLRVDDTALYYCVQDLNDILTGYPLFDFWGQGTLVTVSS
VL: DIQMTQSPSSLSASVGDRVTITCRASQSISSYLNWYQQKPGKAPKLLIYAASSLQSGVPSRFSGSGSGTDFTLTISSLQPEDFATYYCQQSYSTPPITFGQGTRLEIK
On to B1, for which, in the test with Activin A [1], the “IC50, inhibition of 100 pM Activin A in A204/CAGAx12-Luc luciferase bioassay” value turned out to be 1.1e-10 M. The “IC50, inhibition of 30 pM Activin AB in A204/CAGAx12-Luc luciferase bioassay” value in the test with Activin AB worked out at 8e-10 M. Further, the “IC50, inhibition of 4 nM Activin AC in A204/CAGAx12-Luc luciferase bioassay” value with Activin AC was determined as 2.8 nM.

B2: H4H10430P (antibody, human IgG4, V domains shown)
VH: EVQLVESGGGLVQPGRSLRLSCKASGFAFDDFAMHWVRQAPGKGLEWVSGIVWNSGDIGYADSVKGRFTISRDNAKNSLYLQLNSLRTEDTALYFCVKDMVRGLMGFNYYGMDVWGQGTTVTVSS
VL: EIVLTQSPATLSLSPGERATLSCRASQTISTYLVWYRQRPGQAPSLLIYDASNRATDIPARFSGSGSGTDFTLTISSLEPEDFAVYYCQQRSNWPITFGQGTRLEIK
notes: also called mAb1
In the case of B2, the “IC50, inhibition of 100 pM Activin A in A204/CAGAx12-Luc luciferase bioassay” value with Activin A [1] was 6.1e-11 M. Besides, the “IC50, inhibition of 30 pM Activin AB in A204/CAGAx12-Luc luciferase bioassay” value in the test with Activin AB amounted to 1e-10 M. The “IC50, inhibition of 4 nM Activin AC in A204/CAGAx12-Luc luciferase bioassay” value in the test with Activin AC turned out to be 0.93 nM. For the same molecule, the “% bound RU w/ no inhibitor” value worked out at 2% with Activin A [2]; 2% with Activin A [3]; 2% with Activin A [4]; 81% in the test with Activin A [5]; 62% in the test with Activin A [6]; 19% with Activin A [7]. Also, the “% bound RU w/ no inhibitor” value with Activin A [8] was determined as 3%; with Activin A [9] it was 1%; with Activin A [10] it was 1%; with Activin A [11], 1%; with Activin A [12] it was 1%; with Activin A [13], 79%. The “% bound RU w/ no inhibitor” value is 59% with Activin A [14], 15% with Activin A [15], 100% in the test with Activin A [16] and 100% in the test with Activin A [17].

B3: H4H10468P2 (antibody, human IgG4, V domains shown)
VH: QVQLQESGPGLVKPSETLSLTCTVSGGSFSSHFWSWIRQPPGKGLEWIGYIYYSGGTHYNPSLESRVTISVDTSKNQFSLKLNSVTAADTAVYYCARARSGITFGGLIVPGSFDIWGQGTMVTVSS
VL: not shown
In the case of B3, the “IC50, inhibition of 100 pM Activin A in A204/CAGAx12-Luc luciferase bioassay” value in the test with Activin A [1] was found to be 3.9e-11 M. Besides, the “IC50, inhibition of 30 pM Activin AB in A204/CAGAx12-Luc luciferase bioassay” value with Activin AB was determined as 2.3e-09 M. The “IC50, inhibition of 4 nM Activin AC in A204/CAGAx12-Luc luciferase bioassay” value with Activin AC is 3.4 nM.

B4: H4H10446P2 (antibody, human IgG4, V domains shown)
VH: QVQLQESGPGLVKPSETLSLTCTVSGGSFSSHFWSWIRQPPGKGLEWIGYILYTGGTSFNPSLKSRVSMSVGTSKNQFSLKLSSVTAADTAVYYCARARSGITFTGIIVPGSFDIWGQGTMVTVSS
VL: not shown
notes: also called mAb2
With B4, the “IC50, inhibition of 100 pM Activin A in A204/CAGAx12-Luc luciferase bioassay” value in the test with Activin A [1] came to 4.7e-11 M. Further, the “IC50, inhibition of 30 pM Activin AB in A204/CAGAx12-Luc luciferase bioassay” value with Activin AB is 8.2e-09 M. The “IC50, inhibition of 4 nM Activin AC in A204/CAGAx12-Luc luciferase bioassay” value in the test with Activin AC is 5.6 nM. Moreover, the “% bound RU w/ no inhibitor” value stood at 108% with Activin A [2]; 98% with Activin A [3]; 118% with Activin A [4]; 111% with Activin A [5]; 115% with Activin A [6]; 85% in the test with Activin A [7]. Besides, the “% bound RU w/ no inhibitor” value with Activin A [8] was found to be 94%; with Activin A [9], 3%; with Activin A [10], 3%; with Activin A [11] it was 3%; with Activin A [12] it was 3%; with Activin A [13] it was 77%. For the same molecule, the “% bound RU w/ no inhibitor” value was determined as 54% with Activin A [14], 7% with Activin A [15], 100% with Activin A [16] and 100% in the test with Activin A [17].

B5: H4H10442P2 (antibody, human IgG4, V domains shown)
VH: QVQLQESGPGLVKPSETLSITCTVSGGSFSSHFWTWIRQPPGKGLEWIGYLHYSGGTSYNPSLKSRVIISVDTSKNQFSLKLNSVTAADTAVYYCARARSGITFGGLIVPGSFDIWGQGTMVTVSS
VL: not shown
Turning to B5, the “IC50, inhibition of 100 pM Activin A in A204/CAGAx12-Luc luciferase bioassay” value with Activin A [1] came to 5.6e-11 M. For the same molecule, the “IC50, inhibition of 30 pM Activin AB in A204/CAGAx12-Luc luciferase bioassay” value in the test with Activin AB was 2.2e-09 M. The “IC50, inhibition of 4 nM Activin AC in A204/CAGAx12-Luc luciferase bioassay” value in the test with Activin AC amounted to 6.5 nM. The “% bound RU w/ no inhibitor” value with Activin A [2] amounted to 113%; in the test with Activin A [3], 117%; with Activin A [4], 118%; in the test with Activin A [5], 114%; with Activin A [6] it was 114%; in the test with Activin A [7] it was 95%. The “% bound RU w/ no inhibitor” value came to 105% with Activin A [8]; 3% in the test with Activin A [9]; 3% in the test with Activin A [10]; 3% with Activin A [11]; 3% in the test with Activin A [12]; 73% with Activin A [13]. Besides, the “% bound RU w/ no inhibitor” value amounted to 46% in the test with Activin A [14], 6% with Activin A [15], 100% in the test with Activin A [16] and 100% with Activin A [17].

B6: H4H10423P (antibody, human IgG4, V domains shown)
VH: QVQLQQSGPGLLKPSQTLSLTCAISGDSVSSNSAAWSWIRQSPSRGLEWLGRTYYRANWFNDYALSVKSRITINPVTSTNHFSLQLHSVTPEDTAVYYCAREGALGYYFDSWGQGTLVTVSS
VL: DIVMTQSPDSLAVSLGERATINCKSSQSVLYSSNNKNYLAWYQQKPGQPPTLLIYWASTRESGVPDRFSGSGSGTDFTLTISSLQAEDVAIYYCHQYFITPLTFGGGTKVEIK
In the case of B6, in the test with Activin A [1], the “IC50, inhibition of 100 pM Activin A in A204/CAGAx12-Luc luciferase bioassay” value stood at 2e-10 M. The “% bound RU w/ no inhibitor” value was determined as 112% in the test with Activin A [2]; 114% with Activin A [3]; 116% in the test with Activin A [4]; 112% in the test with Activin A [5]; 114% with Activin A [6]; 111% in the test with Activin A [7]. In addition, the “% bound RU w/ no inhibitor” value came out at 110% with Activin A [8]; 96% in the test with Activin A [9]; 94% with Activin A [10]; 93% with Activin A [11]; 97% with Activin A [12]; 120% in the test with Activin A [13]. Moreover, the “% bound RU w/ no inhibitor” value was 122% with Activin A [14], 103% with Activin A [15], 100% with Activin A [16] and 100% with Activin A [17].
